Assay [1] relates to mouse mammary epithelial cell line C57MG. Nature of the assay: DNA synthesis (^3H-thymidine incorporation) in serum-starved C57MG cells. Format: cell-based. Here is the method:
We investigated the effect of GP88 on the proliferation of a variety of cell lines including fibroblasts and mammary epithelial cells.
The ability of GP88 purified from PC cells (upper panel) and recombinant GP88, rGP88 (lower panel), to stimulate DNA synthesis in C57MG cells was measured by incorporation of ^3H-thymidine in serum-starved quiescent cells.

In assay [2] the test system is GP88 cell surface receptors on CCL64 cells. Nature of the assay: ^125I-GP88 binding to CCL64 cells, Scatchard analysis. Particulars: 2 hours at 25° C. Details: species or system mink. Here is the method:
Recombinant GP88 (rGP88) was iodinated by the chloramine T method at 4° C. Other known methods can also be applied. Briefly, 1 μg of GP88 was incubated for 2 min with ^125I Na (100 μCi) that had been preincubated for 90 seconds with 2 μg chloramine T. The reaction was quenched with the addition of 100 μl saturated tyrosine, 10 μl of a 1% solution of bovine serum albumin (BSA) and 2 μg of sodium metabisulfite. After addition of 100 μl PBS, the iodinated protein was separated from free Na^125I by gel filtration on a Sephadex-G50 column that had been preincubated with PBS containing 1% bovine serum albumin and then extensively washed with PBS to reduce non-specific binding. The labeled proteins were eluted with PBS and fractions monitored for radioactivity. Amount of incorporated radioactivity was estimated by TCA precipitation. Specific activity of ^125I-GP88 was typically 30-50 μCi/μg. […]
The example provided here describes binding assay with the mink lung epithelial cell line CCL64 but has also been applied to several cell lines including the 1246, PC cell lines and the mammary epithelial cell line C57MG. […] The cells were harvested by centrifugation, washed with culture medium and counted with a hemocytometer. […] Cell pellets were counted with a gamma counter. […]

We go through one molecule from patent US6670183B2, “88kDa tumorigenic growth factor and antagonists” (A & G Pharmaceutical, Inc., priority 1997, dated 2003).

Like-named read-outs stand apart in the source and are kept apart here.

B1: rGP88: recombinant mouse GP88 expressed in baculovirus infected Sf9 insect cells; iodinated as binding ligand (protein)
chain: TQCPDGQFCPVACCLDQGGANYSCCNPLLDTWPRITSHHLDGSCQTHGHCPAGYSCLLTVSGTSSCCPFSKGVSCGDGYHCCPQGFHCSADGKSCFQMSDNPLGAVQCPGSQFECPDSATCCIMVDGSWGCCPMPQASCCEDRVHCCPHGASCDLVHTRCVSPTGTHTLLKKFPAQKTNSAVSLPFSVVCPDAKTQCPDDSTCCELPTGKYGCCPMPNAICCSDHLHCCPQDTVCDLIQSKCLSKNYTTDLLTKLPGYPVKEVKCDMEVSCPEGYTCCRLNTGAWGCCPFAKAVCCDDHIHCCPAGFQCHTEKGTCEMGILQVGWMKKVIAPLRLPDPQILKSDTPCDDFTRCPTNNTCCKLNSGDWGCCPIPEAVCCSDNQHCCPQGFTCLAQGYCQKGDTMVAGLEKIPARQTTPLQIGDIGCDQHTSCPVGQTCCPSLKGSWACCQLPHAVCCEDRQHCCPAGYTCNVKARTCEKDVDFIQPPVLLTLGPKVGNVECGEGHFCHDNQTCCKDSAGVWACCPYLKGVCCRDGRHCCPGGFHCSARGTKCLRKKIPRWDMFLRDPVPRPLL
As for B1, in assay [1] (150 ng/ml (2 nM)), the “increase in DNA synthesis” value is on record as 5 fold. The “biological activity compared with PC cell derived GP88” value in assay [1] (FIG. 6) is on record as “identical to that of GP88 purified from PC cells”. In addition, the dissociation constant Kd in assay [2] (read-out: Kd, high affinity class of receptors) came to 0.043 nM; in assay [2] (read-out: Kd, low affinity class of receptors) it was 3.9 nM.
